Reference: the supplement of paper PMC10567573

B1: FBXO3 (parent)
chain: FIDTYSDVGRYIDHYAAIKKAWDD
B2: SEC22B (parent)
chain: FPKKLAFAYLEDLHSEFDEQHGKK

Variants of: B1
Assay: protein stability index of a GFP-peptide fusion (GPS, HEK-293T) (PSI 1-6); higher = more stable
Conditions: c terminus: a fixed tail appended
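Further: lentivirally expressed fusions sorted by FACS into six bins by GFP to DsRed ratio, PSI derived from sequencing read proportions per bin multiplied by bin number.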

Protein stability index of substitutions, site by site:
H14: D 2.7; P 2.38; S 2.49; C 2.31; K 1.87; F 2.19; M 1.75; N 1.58; G 2.11; V 2.27; R 2.38; L 1.66; T 1.71; E 1.84; Y 1.82; Q 1.63; A 2.01; I 1.71; W 1.87
Y15: M 1.55; N 1.97; A 1.93; G 1.87; D 2.08; K 1.93; L 1.53; Q 2.96; C 2.24; E 1.94; P 1.57; F 2.14; I 2.15; H 2.32
I2: N 3.21; P 3; V 2.1; C 2.4; E 3.59; H 2.47; L 2.39; K 3.03; M 2.41; A 2.45; Q 2.52; R 3.03; G 3.01; T 2.32; D 3.65; F 2.63; W 2.45; S 3.14; Y 2.5
D3: Q 1.82; E 2.14; N 1.74; H 1.81; K 1.91; C 1.57; T 1.62; L 2.3; G 3.01; P 2.01; R 1.91; M 2.56; W 1.92; F 1.38; I 2.33; V 2.63; Y 2.46; A 2; S 2.06
D7: R 2.14; H 1.63; T 1.68; Q 1.53; L 1.93; V 2.43; C 1.86; I 1.75; N 1.77; K 2.19; F 2.79; E 1.48; M 2.64; G 2.33; S 2.32; A 1.21; Y 2.01; W 2.67; P 2.16
S6: P 2.03; Y 1.54; I 2.14; H 2.06; A 1.97; E 1.62; L 2.17; N 1.83; D 1.69; R 3.1; F 1.6; T 1.65; Q 1.89; C 2.12; V 2.35; K 1.65; W 3.09; G 1.94; M 1.77
Y11: M 1.85; N 2.25; R 2.37; I 2; G 1.66; A 1.82; V 1.93; P 2.24; L 1.42; T 1.59; Q 2.06; C 1.66; K 2.06; E 1.38; S 2.2; W 2.39; F 1.89; H 1.78; D 1.78
F1: V 3.28; L 3.22; R 3.09; C 2.87; S 3.64; Q 3.41; E 3.21; M 2.79; W 2.58; K 2.47; I 2.56; A 3.39; Y 2.09; T 3.74; G 3.05; N 3.57; P 3.62; H 3.58; D 3.74
Y5: F 2.19; K 2.44; V 2.47; G 2.21; Q 2.2; N 2.21; T 2.23; H 2.13; W 2.27; R 2.45; I 2.05; E 2.8; L 1.96; P 3.12; C 2.84; D 2.9; S 2.5; M 2.1; A 2.25
D13: Q 2.7; L 2.24; S 1.84; V 2.2; A 1.98; W 2.51; I 2.88; K 2.1; H 2.06; Y 2.58; M 2.07; T 1.5; E 1.32; P 1.83; C 1.77; G 2.6; N 2.34; R 1.3
T4: H 1.88; F 2.28; I 1.94; M 1.89; L 1.89; A 2.41; P 1.86; Q 1.59; S 1.89; V 1.91; R 2.12; W 1.37; N 2.02; K 1.83; D 2.04; E 2.67; G 3.57; C 1.55; Y 1.82
G9: E 2.15; N 2.05; S 1.91; L 2.22; Y 2; M 3.14; T 1.83; K 1.85; V 1.77; C 1.65; I 1.75; R 1.7; F 1.9; P 1.85; A 1.62; H 1.9; D 1.57; W 1.83; Q 2.03
V8: T 1.65; H 1.82; A 1.79; I 2.62; R 1.59; D 3.07; G 2.07; L 1.92; S 1.72; Q 1.79; M 2.03; E 2.32; P 2.72; K 2.02; F 1.79; Y 1.81; N 2.2; C 1.9; W 1.62
R10: D 2.32; M 1.75; E 2.56; Y 1.75; T 1.83; S 2.1; A 1.6; P 1.78; C 1.9; G 1.92; N 1.88; K 1.82; Q 2.58; I 1.48; V 2.86; H 1.56; L 1.85; F 2.23; W 1.46
I12: L 1.97; H 1.91; C 2.21; Q 2.3; T 1.93; M 1.72; W 1.41; D 1.82; R 2.27; S 1.32; V 2; N 1.78; E 1.99; K 1.76; Y 1.98; F 2.09; A 2.21; P 2.05; G 2.19

Variants of: B2
Assay: as above
Conditions: c terminus: a fixed tail appended

Protein stability index: each site, then its substitutions
K24: R 2.9; L 2.12; M 2.36; H 2.59; Y 2.49; N 2.32; D 2.68; S 2.8; V 2.49; I 1.89; F 2.21; Q 2.9; C 2.23; T 2.5; P 2.29; G 2.11; A 2.72; W 2.54; E 2.83
K23: Q 2.81; S 2.7; L 2.53; Y 2.2; G 2.27; D 3.12; P 2.33; W 2.38; V 2.67; R 2.34; E 2.81; H 2.63; M 2.25; A 2.36; N 2.66; T 1.81; C 2.3; I 2.66; F 2.07
G22: P 2.48; Q 2.36; L 2.34; H 3; I 2.25; Y 1.98; D 2.15; S 2.6; K 2.23; T 2.43; V 2.12; F 1.97; R 2.51; M 2.62; N 2.71; W 2.23; E 2.56
